From US20170319655A1

Key:
[1] = biological target: flagellin on flagellin-expressing Pseudomonas aeruginosa wild type bacteria (Pseudomonas aeruginosa); assay: cell-based or functional assay
[2] = biological target: MUC1-ED on Ad-NEU1-infected airway epithelial cells (A549 cells; SAECs), desialylated by overexpressed NEU1 (human) (UniProt P15941); assay: cell-based or functional assay

In the case of “desialylated shed MUC1-ED from culture supernates of Ad-NEU1-infected A549 cells (from UniProt P15941 24-1158) (receptor)”, the MUC1-ED concentrations capable of inhibiting Pa adhesion in vitro [1] is reported as less than 0.63 µg/mL and the reduction of Pa adhesion to A549 monolayers, against MUC1-ED from Ad-GFP-infected ECs [1] is reported as 65%.
Work on “MUC1-ED from supernates of airway ECs cultured with the O-glycosylation inhibitor GalNAc-O-bn (from UniProt P15941 24-1158) (receptor)” yielded a reduction of Pa adhesion to A549 monolayers, against its control [1] of 88%.
With “shed MUC1-ED from culture supernates of flagellin-stimulated A549 cells (from UniProt P15941 24-1158) (receptor)” the MUC1-ED concentrations capable of inhibiting Pa adhesion in vitro [1] was less than 0.63 µg/mL.
Substance “desialylated MUC1-ED in bronchoalveolar lavage fluids (BALFs) from Pa-colonized patients (from UniProt P15941 24-1158) (receptor)” has an inhibition of Pa adhesion to A549 cells, against BALFs from noncolonized subjects [1] of 52.9% and an inhibition of Pa adhesion to A549 cells, against BALFs from patients colonized with nonPa microorganisms [1] of 42.1%.
Substance “flagellin on flagellin-expressing Pseudomonas aeruginosa wild type bacteria (ligand)” has a Pa adhesion to Ad-NEU1-infected A549 cells (CFUs bound), against Ad-GFP-infected ECs [2] of 2 fold and a Pa adhesion to Ad-NEU1-infected SAECs (CFUs bound), against Ad-GFP-infected SAECs [2] of 3.4 fold.
In the case of “E. coli-expressed deglycosylated MUC1-ED (from E. coli transformed with pMUC1) (from UniProt P15941 24-1097) (receptor)”, the reduction of Pa adhesion to A549 monolayers, against the empty vector control [1] is reported as 93%.
